Data reported in PMC2779590 (2009).

Biological target: α5β1 integrin (Homo sapiens, UniProt P08648)
Test: SPR

Chain of α5β1 integrin (P08648 42-1049, chain 1 of 2): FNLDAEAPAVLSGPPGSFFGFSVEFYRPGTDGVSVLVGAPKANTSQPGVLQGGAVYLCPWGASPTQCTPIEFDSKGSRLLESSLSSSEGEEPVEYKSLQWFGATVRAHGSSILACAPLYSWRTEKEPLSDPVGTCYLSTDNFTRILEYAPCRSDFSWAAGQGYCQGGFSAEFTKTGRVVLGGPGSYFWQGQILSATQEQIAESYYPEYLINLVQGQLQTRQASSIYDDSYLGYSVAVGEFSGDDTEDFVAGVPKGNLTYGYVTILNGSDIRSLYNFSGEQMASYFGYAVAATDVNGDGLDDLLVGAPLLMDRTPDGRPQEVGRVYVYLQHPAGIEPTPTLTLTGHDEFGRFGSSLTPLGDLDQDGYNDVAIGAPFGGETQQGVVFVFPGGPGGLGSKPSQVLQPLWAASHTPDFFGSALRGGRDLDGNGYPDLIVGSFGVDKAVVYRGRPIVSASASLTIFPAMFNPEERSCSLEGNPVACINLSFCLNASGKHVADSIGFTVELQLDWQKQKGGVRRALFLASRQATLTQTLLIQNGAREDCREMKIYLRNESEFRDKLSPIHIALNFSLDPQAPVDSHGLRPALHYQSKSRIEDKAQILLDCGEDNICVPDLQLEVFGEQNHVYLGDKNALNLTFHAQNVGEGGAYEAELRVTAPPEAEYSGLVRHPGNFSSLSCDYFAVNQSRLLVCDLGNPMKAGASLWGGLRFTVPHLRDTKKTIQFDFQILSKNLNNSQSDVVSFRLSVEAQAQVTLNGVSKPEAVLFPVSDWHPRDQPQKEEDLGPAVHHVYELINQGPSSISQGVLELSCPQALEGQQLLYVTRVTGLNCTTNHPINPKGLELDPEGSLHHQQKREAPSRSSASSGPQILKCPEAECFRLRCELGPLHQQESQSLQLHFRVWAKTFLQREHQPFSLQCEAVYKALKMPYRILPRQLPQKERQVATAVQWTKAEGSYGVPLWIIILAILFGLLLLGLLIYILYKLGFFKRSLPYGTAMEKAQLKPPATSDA
Chain of α5β1 integrin (chain, as listed by the source, chain 2 of 2): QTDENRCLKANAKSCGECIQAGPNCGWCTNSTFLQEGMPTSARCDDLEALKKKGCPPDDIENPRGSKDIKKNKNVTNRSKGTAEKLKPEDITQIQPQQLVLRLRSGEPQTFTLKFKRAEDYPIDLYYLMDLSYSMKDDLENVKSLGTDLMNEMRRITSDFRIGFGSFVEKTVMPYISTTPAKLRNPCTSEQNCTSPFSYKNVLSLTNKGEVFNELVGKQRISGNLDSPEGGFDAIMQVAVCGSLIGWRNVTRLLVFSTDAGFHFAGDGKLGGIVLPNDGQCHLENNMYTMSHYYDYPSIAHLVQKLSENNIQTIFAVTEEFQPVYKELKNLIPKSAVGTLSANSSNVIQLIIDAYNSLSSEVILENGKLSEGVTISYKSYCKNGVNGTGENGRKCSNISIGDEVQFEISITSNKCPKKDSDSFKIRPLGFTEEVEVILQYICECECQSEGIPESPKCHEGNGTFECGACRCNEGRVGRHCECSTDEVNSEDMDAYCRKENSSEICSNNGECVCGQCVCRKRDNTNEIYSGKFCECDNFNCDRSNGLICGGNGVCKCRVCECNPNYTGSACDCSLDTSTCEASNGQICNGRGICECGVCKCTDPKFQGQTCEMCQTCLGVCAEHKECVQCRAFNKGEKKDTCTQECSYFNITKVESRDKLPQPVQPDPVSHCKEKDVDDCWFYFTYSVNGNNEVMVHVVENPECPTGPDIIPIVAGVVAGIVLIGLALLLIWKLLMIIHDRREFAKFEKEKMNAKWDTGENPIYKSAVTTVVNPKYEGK

B1: CagA (protein)
chain: MTNETIDQTRTPDQTQSQTAFDPQQFINNLQVAFIKVDNVVASFDPDQKPIVDKNDRDNRQAFDGISQLREEYSNKAIKNPTKKNQYFSDFIDKSNDLINKDNLIDVESSTKSFQKFGDQRYQIFTSWVSHQKDPSKINTRSIRNFMENIIQPPIPDDKEKAEFLKSAKQSFAGIIIGNQIRTDQKFMGVFDESLKERQEAEKNGGPTGGDWLDIFLSFIFNKKQSSDVKEAINQEPVPHVQPDIATTTTDIQGLPPEARDLLDERGNFSKFTLGDMEMLDVEGVADIDPNYKFNQLLIHNNALSSVLMGSHNGIEPEKVSLLYAGNGGFGDKHDWNATVGYKDQQGNNVATLINVHMKNGSGLVIAGGEKGINNPSFYLYKEDQLTGSQRALSQEEIRNKVDFMEFLAQNNTKLDNLSEKEKEKFQNEIEDFQKDSKAYLDALGNDRIAFVSKKDTKHSALITEFNNGDLSYTLKDYGKKADKALDREKNVTLQGSLKHDGVMFVDYSNFKYTNASKNPNKGVGATNGVSHLEAGFNKVAVFNLPDLNNLAITSFVRRNLENKLTAKGLSLQEANKLIKDFLSSNKELAGKALNFNKAVAEAKSTGNYDEVKKAQKDLEKSLRKREHLEKEVEKKLESKSGNKNKMEAKAQANSQKDEIFALINKEANRDARAIAYTQNLKGIKRELSDKLEKISKDLKDFSKSFDEFKNGKNKDFSKAEETLKALKGSVKDLGINPEWISKVENLNAALNEFKNGKNKDFSKVTQAKSDLENSVKDVIINQKVTDKVDNLNQAVSVAKAMGDFSRVEQVLADLKNFSKEQLAQQAQKNEDFNTGKNSELYQSVKNSVNKTLVGNGLSGIEATALAKNFSDIKKELNEKFKNFNNNNNGLKNSTEPIYAKVNKKKTGQVASPEEPIYTQVAKKVNAKIDRLNQIASGLGGVGQAAGFPLKRHDKVDDLSKVGLSASPEPIYATIDDLGGPFPLKRHDKVDDLSKVGRSRNQELAQKIDNLNQAVSEAKAGFFGNLEQTIDKLKDSTKKNVMNLYVESAKKVPASLSAKLDNYAINSHTRINSNIQNGAINEKATGMLTQKNPEWLKLVNDKIVAHNVGSVSLSEYDKIGFNQKNMKDYSDSFKFSTKLNNAVKDIKSGFTHFLANAFSTGYYCLARENAEHGIKNVNTKGGFQKS
B1 gave a Kd of 0.15 nM.
